Results as given in the supplement of paper PMC11246515.
± gives the standard deviation of the averaged measurements.

Assay: total protein half-life in vivo (active degradation + dilution); higher = more stable protein
[1] = wild type E. coli NCM3722, growth: C-lim chemostat, doubling time 6 h
[2] = wild type E. coli NCM3722, growth: C-lim chemostat, doubling time 12 h
[3] = wild type E. coli NCM3722, growth: P-lim chemostat, doubling time 6 h
[4] = wild type E. coli NCM3722, growth: P-lim chemostat, doubling time 12 h
[5] = E. coli NCM3722 delta-clpP delta-lon delta-hslV, growth: N-lim chemostat, doubling time 6 h
[6] = E. coli NCM3722 delta-clpP, growth: N-lim chemostat, doubling time 6 h
[7] = E. coli NCM3722 delta-hslV, growth: N-lim chemostat, doubling time 6 h
[8] = E. coli NCM3722 delta-lon, growth: N-lim chemostat, doubling time 6 h
[9] = E. coli NCM3722 delta-smpB, growth: N-lim chemostat, doubling time 6 h
[10] = wild type E. coli NCM3722, growth: C-lim chemostat, doubling time 3 h
[11] = wild type E. coli NCM3722, growth: N-lim chemostat, doubling time 6 h
[12] = wild type E. coli NCM3722, growth: N-lim chemostat, doubling time 12 h

| Sequence | total protein half-life in vivo [1] [h] | total protein half-life in vivo [2] [h] | total protein half-life in vivo [3] [h] | total protein half-life in vivo [4] [h] | total protein half-life in vivo [5] [h] | total protein half-life in vivo [6] [h] | total protein half-life in vivo [7] [h] | total protein half-life in vivo [8] [h] | total protein half-life in vivo [9] [h] | total protein half-life in vivo [10] [h] | total protein half-life in vivo [11] [h] | total protein half-life in vivo [12] [h] |
| --- | --- | --- | --- | --- | --- | --- | --- | --- | --- | --- | --- | --- |
| MAINFSPKVGEILECNFGNYPVSQNGPFSTTYYDGRIPPEMIKNRLVVVLNGKINGNACIVVPLSTTRDQDKLKRGMHVEIASNVINDLQFFDQQIRWAKADLVQQVSRNRLNRARTYRGYLNQCLPHELVADIQRAVIKSINAISLIN | 6.12 | 8.7 ± 2 | 4.05 | 8.56 ± 0.1 | – | – | – | – | – | – | – | – |
| MAISIKTPEDIEKMRVAGRLAAEVLEMIEPYVKPGVSTGELDRICNDYIVNEQHAVSACLGYHGYPKSVCISINEVVCHGIPDDAKLLKDGDIVNIDVTVIKDGFHGDTSKMFIVGKPTIMGERLCRITQESLYLALRMVKPGINLREIGAAIQKFVEAEGFSVVREYCGHGIGRGFHEEPQVLHYDSRETNVVLKPGMTFTIEPMVNAGKKEIRTMKDGWTVKTKDRSLSAQYEHTIVVTDNGCEILTLRKDDTIPAIISHDE [P0AE18] | 5.52 ± 0.18 | 10.4 ± 0.64 | 6.04 ± 0.15 | 12.19 ± 0.095 | 5.22 ± 1 | 4.545 ± 0.041 | 4.71 ± 0.14 | 5.3 ± 0.74 | 4.36 ± 0.17 | 3.53 ± 0.17 | 4.42 ± 0.58 | 6.93 ± 0.49 |
| MAKAPKRAFVCNECGADYPRWQGQCSACHAWNTITEVRLAASPMVARNERLSGYAGSAGVAKVQKLSDISLEELPRFSTGFKEFDRVLGGGVVPGSAILIGGNPGAGKSTLLLQTLCKLAQQMKTLYVTGEESLQQVAMRAHRLGLPTDNLNMLSETSIEQICLIAEEEQPKLMVIDSIQVMHMADVQSSPGSVAQVRETAAYLTRFAKTRGVAIVMVGHVTKDGSLAGPKVLEHCIDCSVLLDGDADSRFRTLRSHKNRFGAVNELGVFAMTEQGLREVSNPSAIFLSRGDEVTSGSSVMVVWEGTRPLLVEIQALVDHSMMANPRRVAVGLEQNRLAILLAVLHRHGGLQMADQDVFVNVVGGVKVTETSADLALLLAMVSSLRDRPLPQDLVVFGEVGLAGEIRPVPSGQERISEAAKHGFRRAIVPAANVPKKAPEGMQIFGVKKLSDALSVFDDL | 4.894 ± 0.039 | 8.52 ± 1.8 | 5.64 ± 0.66 | 10.2 ± 0.85 | 4.95 ± 0.18 | 4.7 ± 0.74 | 4.63 ± 1.1 | – | 3.88 ± 0.27 | 2.88 ± 0.043 | 3.65 ± 0.14 | 5.76 ± 0.49 |
| MAKEISSELLNTILTRVGGPGNIASCGNCMTRLRLGVHDSSLVDPNIKTLEGVKGVILTSDQVQVVFGPGKAHRAAKAMSELLGEAPVQDAAEIAAQNKRQLKAKQTSGVQQFLAKFATIFTPLIPGFIAAGLLLGIATLIATVMHVPADAQGTLPDALNFMKVFSKGLFTFLVILVGYNAAQAFGGTGVNGAIIAALFLLGYNPAATTGYYAGFHDFFGLPIDPRGNIIGVLIAAWACARIEGMVRRFMPDDLDMLLTSLITLLITATLAYLIIMPLGGWLFEGMSWLFMHLNSNPFGCAVLAGLFLIAVVFGVHQGFIPVYLALMDSQGFNSLFPILSMAGAGQVGAALALYWRAQPHSALRSQVRGAIIPGLLGVGEPLIYGVTLPRMKPFVTACLGGAAGGLFIGLIAWWGLPMGLNSAFGPSGLVALPLMTSAQGILPAMAVYAGGILVAWVCGFIFTTLFGCRNVNLD | 5.06 | – | – | – | 3.66 | 3.67 | – | – | 6.02 | 3.48 | 5.006 ± 0.029 | – |
| MAKLTLQEQLLKAGLVTSKKAAKVERTAKKSRVQAREARAAVEENKKAQLERDKQLSEQQKQAALAKEYKAQVKQLIEMNRITIANGDIGFNFTDGNLIKKIFVDKLTQAQLINGRLAIARLLVDNNSEGEYAIIPASVADKIAQRDASSIVLHSALSAEEQDEDDPYADFKVPDDLMW | 3.23 ± 0.14 | 4.09 ± 0.13 | 2.17 ± 0.44 | 4.41 ± 0.084 | 5.344 ± 0.0096 | 4.88 ± 0.16 | 2.22 ± 0.1 | 2.88 | 2.37 | 2.24 ± 0.012 | 1.95 ± 0.37 | 2.45 ± 0.67 |
| MAKMRAVDAAMYVLEKEGITTAFGVPGAAINPFYSAMRKHGGIRHILARHVEGASHMAEGYTRATAGNIGVCLGTSGPAGTDMITALYSASADSIPILCITGQAPRARLHKEDFQAVDIEAIAKPVSKMAVTVREAALVPRVLQQAFHLMRSGRPGPVLVDLPFDVQVAEIEFDPDMYEPLPVYKPAASRMQIEKAVEMLIQAERPVIVAGGGVINADAAALLQQFAELTSVPVIPTLMGWGCIPDDHELMAGMVGLQTAHRYGNATLLASDMVFGIGNRFANRHTGSVEKYTEGRKIVHIDIEPTQIGRVLCPDLGIVSDAKAALTLLVEVAQEMQKAGRLPCRKEWVADCQQRKRTLLRKTHFDNVPVKPQRVYEEMNKAFGRDVCYVTTIGLSQIAAAQMLHVFKDRHWINCGQAGPLGWTIPAALGVCAADPKRNVVAISGDFDFQFLIEELAVGAQFNIPYIHVLVNNAYLGLIRQSQRAFDMDYCVQLAFENINSSEVNGYGVDHVKVAEGLGCKAIRVFKPEDIAPAFEQAKALMAQYRVPVVVEVILERVTNISMGSELDNVMEFEDIADNAADAPTETCFMHYE [P0AEP7] | – | 7.8 ± 3.2 | 5.49 ± 0.69 | 11.9 ± 2 | 5.98 ± 0.97 | 3.5 ± 0.04 | 4.16 ± 0.24 | 3.51 | 3.85 ± 0.4 | 2.87 ± 0.1 | 3.45 | 5.7 ± 0.37 |
| MAKTAAALHILVKEEKLALDLLEQIKNGADFGKLAKKHSICPSGKRGGDLGEFRQGQMVPAFDKVVFSCPVLEPTGPLHTQFGYHIIKVLYRN [P0A9L5] | 5.57 ± 0.14 | 9.11 ± 0.34 | 4.54 ± 1.2 | 10.6 ± 0.12 | 6.6 ± 0.64 | 4.65 ± 1.5 | 4.743 ± 0.043 | 6.25 ± 0.67 | 6.01 ± 0.7 | 3.05 ± 0.21 | 4.22 ± 0.34 | 7.37 ± 0.48 |
